Paper PMC6890793, “How water-mediated hydrogen bonds affect chlorophyll a/b selectivity in Water-Soluble Chlorophyll Protein” (Scientific Reports, 2019)

Target: the molecule itself
Assay: crystal structure; Chl b-reconstituted WSCP crystallised by hanging-drop vapour diffusion (Lv-wt: 0.1 M Na/K phosphate pH 6.0, 3.0 M (NH4)2SO4, 4.7% sucrose; Bo-wt: 0.1 M (NH4)H2PO4 pH 4.5, 10% PEG 3350); data at 100 K; molecular replacement with the Chl a complexes

B1: Water-Soluble Chlorophyll Protein (WSCP) from Brassica oleracea var. botrytis, wild type, reconstituted with Chl b (natural protein)
chain: REQVKDSNGNPVKRGAKYFIQPAKSNGGGLVPAAINILPFCPLGITQTLLPYQPGLPVSFGYEPVIVGTDYIYTSTTINIEFRSEIWPVCNELSKLWAVDVSSSAAKEPAIIIGGERTAPNSLFKIEEATGAHTYKLTTSSGTVGTIPGPWLGAPQLIATNDDAKTLFVKFVKVDDDAT
notes: Water-Soluble Chlorophyll Protein (WSCP), Brassica oleracea var. botrytis (cauliflower), wild type; also called Bo-wt; Chl b Bo-wt; source: E. coli, overexpressed, purified; apoprotein reconstituted with Chl b
  binding result: binds
